Test results: publication PMC5993284, “Peptide inhibitors of the anaphase promoting-complex that cause sensitivity to microtubule poison” (PLoS ONE, 2018)
Values joined by “and” are separate entries in the source; they are usually repeats but may differ in a detail not shown here. Equal entries are not always repeated. Where two headings read alike, the source gives them in different places. Ends that are not written are not given here.

Biological target: T1, APC/C^Cdc20 (Saccharomyces cerevisiae, UniProt P16522+P53886)
T1 construct: constructed within full-length Cdc20 by site-directed mutagenesis for analysis in vitro in the APC/C^Cdc20 assay; The APC/C was purified for enzyme assays from 1 mL of TAP-tagged Cdc16 yeast extract (SCSY51); made in house; host or cells: Cdc20: in vitro transcription/translation in rabbit reticulocyte lysate, used unpurified; APC/C: S. cerevisiae strain SCSY51 (Cdc16-TAP) extract, captured on IgG magnetic beads
Assay: biochemical
Format: biochemical
Details: for inhibition of APC/C^Cdc20 activity (in words): 220 μM peptide, time course 0-60 minutes, vs buffer only, n = 3; for ubiquitinated Pds1 species at 60 minutes (in words): inhibitor at about 4-times the IC50, S2 Fig C
Protocol: Full-length, radio-labeled protein purifications were preformed as previously described. ^35S-Pds1 was prepared in a 500 μL IVT/T (In Vitro Transcription/Translation) reaction (Promega, USA), which contained 400 μL rabbit reticulocyte lysate, 20 μL of L-^35S-methionine (PerkinElmer, USA), 10 μg of plasmid DNA, and the remaining volume as nuclease-free ddH2O as recommended by the manufacturer. The reaction mixture was incubated for 2 hours at room temperature and gently mixed every 30 minutes. The reaction was added to pre-equilibrated IgG Sepharose beads (GE Healthcare, USA) in Bio-spin disposable chromatography columns (Bio-Rad, USA) for binding for 2 hours at room temperature. To ensure efficient binding, the beads were re-suspended several times every 30 minutes. After binding, the beads were washed with 5 mL wash buffer, containing 200 mM 4-(2-hydroxyethyl)-1-piperazineethanesulfonic acid (HEPES) at pH 8.0, 150 mM NaCl, 10% (v/v) glycerol, and 1 mM dithiothreitol (DTT). The ^35S-Pds1 was cleaved from the beads using TEV (Tobacco Etch Virus) protease in 1x TEV buffer (Invitrogen, USA) for 2 hours at room temperature, and the mixture was re-suspended several times every 30 minutes to promote efficient cleavage. The elution was collected and concentrated by employing an Amicon Ultra filter column (Millipore, Ireland). The concentrated ^35S-Pds1 was collected in a new tube, and stored at -20 °C.
The production of Cdc20 or Cdh1 was prepared by IVT/T reactions, where 16 μL of rabbit reticulocyte lysate, 20 μM L-methionine, 0.4 μg of plasmid DNA, and a volume of nuclease-free ddH2O for a total volume of 20 μL. This freshly synthesized Cdc20 or Cdh1 protein was used directly in all APC/C assays after a 1-hour synthesis reaction at room temperature. The APC/C was purified for enzyme assays from 1 mL of TAP-tagged Cdc16 yeast extract (SCSY51) where extract was mixed with 50 μL 50:50 slurry magnetic beads (Invitrogen, Norway) for 2 hours at 4 °C. After incubation, the beads were washed with 3 mL APC/C wash buffer (200 mM of HEPES, 150 mM of NaCl and 10% (v/v) of glycerol). APC/C bound to IgG magnetic beads was used directly in the enzyme assays.
APC/C assays were performed by adding the reaction contents in following order: 4.3 μL of QAH buffer, 20 μL of rabbit reticulocyte lysate containing Cdc20 or Cdh1 with or without an additional volume of recombinant checkpoint protein(s) or inhibitor peptides, 2.4 μL ubiquitin aldehyde (Boston Biochem, USA), APC/C, 16 μL pre-charged E1/E2/ATP/ubiquitin mix, and 13.3 μL of ^35S-Pds1 with QAH buffer (20 mM HEPES at pH 8.0, 100 mM NaCl, and 1 mM MgCl2). The E1/E2/ATP/ubiquitin mix were pre-charged by mixing 1 μL of E1 (Boston Biochem, USA), 1 μL of E2 (Boston Biochem, USA), 14.4 μL of ATP, 14.4 μL of […] (Boston Biochem, USA), and 17.2 μL of QAH buffer and incubated for 15 minutes at room temperature. Approximately 15 μL of samples were taken out at each time point, and the reaction was stopped by the addition of 2x protein sample buffer (125 mM Tris-HCl pH 6.8, 4% SDS, 20% glycerol, and 0.002% bromophenol blue, with 10% (final v/v) 2-mercaptoethanol added in fresh directly before use).
For inhibitor titration and time-course experiments, recombinant Bub3, Mad2, Mad3, and the Mad3-Bub3 complex were expressed and purified as previously described. […] For inhibition of APC/C the co-factor Cdc20 or Cdh1 was made fresh by IVT/T, and pure recombinant checkpoint proteins or inhibitor peptides were added to the IVT/T mixture and incubated for an additional hour at room temperature. In titrations, a dilution series of the checkpoint protein(s) were made before incubation with the Cdc20 co-factor. SDS-PAGE was performed using stand protocols (BioRad, USA).

[1] = MCC subunits, 4-parameter Hill fit, ± sd
[2] = MCC subunits, titration, 4-parameter Hill fit, ± sd from three independent titrations, 35S-Pds1 substrate, read-out: IC50

| Molecule | inhibition of APC/C^Cdc20 activity (in words) (35S-Pds1 substrate) | Hill coefficient [1] | IC50 [2] [nM] | other results |
| --- | --- | --- | --- | --- |
| AV16: C-box containing peptide AV16 (Cdc20 143–158) (ADRYIPILQGASQNKV; UniProt P26309 143-158, looked up, fragment) | A significant level of APC/C^Cdc20 inhibition was observed only in the presence of the C-box2 peptide | – | – | – |
| DS17: DS17 (Cdc20 197–212) peptide derived from the N-terminal portion of the DQ36 peptide (DMNKRILQYMPEPPKC; UniProt P26309 197-212, looked up, fragment) | no significant inhibition was observed | – | – | – |
| MKVLDDWFSRKFSKAVHGNNHGTISLSTLSYIRVHKLVK [Tyc1] | – | – | – | IC50: ~50000 nM |
| EV25: C-box containing peptide EV25 (Cdc20 134–158) (EVDEQFTVAADRYIPILQGASQNKV; UniProt P26309 134-158, looked up, fragment) | A significant level of APC/C^Cdc20 inhibition was observed only in the presence of the C-box2 peptide | – | – | – |
| C-box1: C-box containing peptide C-box1 (130–167) (TTSREVDEQFTVAADRYIPILQGASQNKVDPETLHEAL; UniProt P26309 130-167, looked up, fragment) | A significant level of APC/C^Cdc20 inhibition was observed only in the presence of the C-box2 peptide | – | – | – |
| PL29: PL29 (Cdc20 167–196) that does not contain the KILR-motif (LPPPNASPISHLRAQTKIVFKQNVAEACGL; UniProt P26309 167-196, looked up, fragment) | displayed the ability to inhibit APC/C^Cdc20 activity | – | – | – |
| DMNKRILQYMPEPPKCSSLRQKSYIMKKRTHYSYQQ [DQ36] | – | – | – | IC50: ~150000 nM; IC50 weaker than that of PQ65 (times) (ratio of IC50 relative to PQ65): about 3 times |
| Mad2: pure recombinant MCC component Mad2 (protein) MSQSISLKGSTRTVTEFFEYSINSILYQRGVYPAEDFVTVKKYDLTLLKTHDDELKDYIRKILLQVHRWLLGGKCNQLVLCIVDKDEGEVVERWSFNVQHISGNSNGQDDVVDLNTTQSQIRALIRQITSSVTFLPELTKEGGYTFTVLAYTDADAKVPLEWADSNSKEIPDGEVVQFKTFSTNDHKVGAQVSYKY | yields a high level of inhibition | 2.4 ± 0.3 and 2.4 | 2300 ± 500 | ubiquitinated Pds1 species at 60 minutes (in words): the small amount of Pds1 that is ubiquitinated appears to be fully poly-ubiquitinated |
| Bub3: pure recombinant MCC component Bub3 (protein, UniProt P26449 1-341, looked up) Spindle assembly checkpoint …: MQIVQIEQAPKDYISDIKIIPSKSLLLITSWDGSLTVYKFDIQAKNVDLLQSLRYKHPLLCCNFIDNTDLQIYVGTVQGEILKVDLIGSPSFQALTNNEANLGICRICKYGDDKLIAASWDGLIEVIDPRNYGDGVIAVKNLNSNNTKVKNKIFTMDTNSSRLIVGMNNSQVQWFRLPLCEDDNGTIEESGLKYQIRDVALLPKEQEGYACSSIDGRVAVEFFDDQGDDYNSSKRFAFRCHRLNLKDTNLAYPVNSIEFSPRHKFLYTAGSDGIISCWNLQTRKKIKNFAKFNEDSVVKIACSDNILCLATSDDTFKTNAAIDQTIELNASSIYIIFDYEN | – | 2.2 ± 0.4 and 2.2 | 8700 ± 2400 | – |
| Mad3-Bub3 complex: recombinant Mad3-Bub3 complex (protein, UniProt P47074 1-515; P26449 1-341, looked up) Spindle assembly checkpoint … 1: MKAYAKKRISYMPSSPSQNVINFEEIETQKENILPLKEGRSAAALSKAIHQPLVEINQVKSSFEQRLIDELPALSDPITLYLEYIKWLNNAYPQGGNSKQSGMLTLLERCLSHLKDLERYRNDVRFLKIWFWYIELFTRNSFMESRDIFMYMLRNGIGSELASFYEEFTNLLIQKEKFQYAVKILQLGIKNKARPNKVLEDRLNHLLRELGENNIQLGNEISMDSLESTVLGKTRSEFVNRLELANQNGTSSDVNLTKNNVFVDGEESDVELFETPNRGVYRDGWENFDLKAERNKENNLRISLLEANTNLGELKQHEMLSQKKRPYDEKLPIFRDSIGRSDPVYQMINTKDQKPEKIDCNFKLIYCEDEESKGGRLEFSLEEVLAISRNVYKRVRTNRKHPREANLGQEESANQKEAEAQSKRPKISRKALVSKSLTPSNQGRMFSGEEYINCPMTPKGRSTETSDIISAVKPRQLTPILEMRESNSFSQSKNSEIISDDDKSSSSFISYPPQR Spindle assembly checkpoint … 2: MQIVQIEQAPKDYISDIKIIPSKSLLLITSWDGSLTVYKFDIQAKNVDLLQSLRYKHPLLCCNFIDNTDLQIYVGTVQGEILKVDLIGSPSFQALTNNEANLGICRICKYGDDKLIAASWDGLIEVIDPRNYGDGVIAVKNLNSNNTKVKNKIFTMDTNSSRLIVGMNNSQVQWFRLPLCEDDNGTIEESGLKYQIRDVALLPKEQEGYACSSIDGRVAVEFFDDQGDDYNSSKRFAFRCHRLNLKDTNLAYPVNSIEFSPRHKFLYTAGSDGIISCWNLQTRKKIKNFAKFNEDSVVKIACSDNILCLATSDDTFKTNAAIDQTIELNASSIYIIFDYEN | – | 7.3 ± 2.6 | 89 ± 4 | Hill coefficient (MCC subunits, 4-parameter Hill fit, ± sd, listed as Mad3-Bub3): 7.3; Hill coefficient (Mad3-Bub3 complex in the presence of 0.5 μM Mad2, ± sd): 8.2 ±1.9; IC50 (Mad3-Bub3 complex in the presence of 0.5 μM Mad2, ± sd, three independent titrations, read-out: IC50): 70 ± 3 nM; ubiquitinated Pds1 species at 60 minutes (in words): the Pds1 accumulated in these lower molecular weight species |
| Mad3: pure recombinant MCC component Mad3 (protein, UniProt P47074 1-515, looked up) Spindle assembly checkpoint …: MKAYAKKRISYMPSSPSQNVINFEEIETQKENILPLKEGRSAAALSKAIHQPLVEINQVKSSFEQRLIDELPALSDPITLYLEYIKWLNNAYPQGGNSKQSGMLTLLERCLSHLKDLERYRNDVRFLKIWFWYIELFTRNSFMESRDIFMYMLRNGIGSELASFYEEFTNLLIQKEKFQYAVKILQLGIKNKARPNKVLEDRLNHLLRELGENNIQLGNEISMDSLESTVLGKTRSEFVNRLELANQNGTSSDVNLTKNNVFVDGEESDVELFETPNRGVYRDGWENFDLKAERNKENNLRISLLEANTNLGELKQHEMLSQKKRPYDEKLPIFRDSIGRSDPVYQMINTKDQKPEKIDCNFKLIYCEDEESKGGRLEFSLEEVLAISRNVYKRVRTNRKHPREANLGQEESANQKEAEAQSKRPKISRKALVSKSLTPSNQGRMFSGEEYINCPMTPKGRSTETSDIISAVKPRQLTPILEMRESNSFSQSKNSEIISDDDKSSSSFISYPPQR | – | 5.0 ± 0.9 and 5.0 | 240 ± 10 | – |
